Results taken from patent publication USRE41461E1, “Purification, composition and specificity of Heparinase I, II, and III from Flavobacterium heparinum” (Massachusetts Institute of Technology, priority 1992, dated 2010).
Like-named read-outs stand apart in the source and are kept apart here.

B1: Heparin lyase II: heparin lyase II (heparinase II, no EC number) purified to homogeneity from Flavobacterium heparinum (protein, UniProt C6XZB6 26-772, looked up)
Heparin and heparin-sulfate …: QTKADVVWKDVDGVSMPIPPKTHPRLYLREQQVPDLKNRMNDPKLKKVWADMIKMQEDWKPADIPEVKDFRFYFNQKGLTVRVELMALNYLMTKDPKVGREAITSIIDTLETATFKPAGDISRGIGLFMVTGAIVYDWCYDQLKPEEKTRFVKAFVRLAKMLECGYPPVKDKSIVGHASEWMIMRDLLSVGIAIYDEFPEMYNLAAGRFFKEHLVARNWFYPSHNYHQGMSYLNVRFTNDLFALWILDRMGAGNVFNPGQQFILYDAIYKRRPDGQILAGGDVDYSRKKPKYYTMPALLAGSYYKDEYLNYEFLKDPNVEPHCKLFEFLWRDTQLGSRKPDDLPLSRYSGSPFGWMIARTGWGPESVIAEMKVNEYSFLNHQHQDAGAFQIYYKGPLAIDAGSYTGSSGGYNSPHNKNFFKRTIAHNSLLIYDPKETFSSSGYGGSDHTDFAANDGGQRLPGKGWIAPRDLKEMLAGDFRTGKILAQGFGPDNQTPDYTYLKGDITAAYSAKVKEVKRSFLFLNLKDAKVPAAMIVFDKVVASNPDFKKFWLLHSIEQPEIKGNQITIKRTKNGDSGMLVNTALLPDAANSNITSIGGKGKDFWVFGTNYTNDPKPGTDEALERGEWRVEITPKKAAAEDYYLNVIQIADNTQQKLHEVKRIDGDKVVGVQLADRIVTFSKTSETVDRPFGFSVVGKGTFKFVMTDLLPGTWQVLKDGKILYPALSAKGDDGALYFEGTEGTYRFLR
B2: Heparin lyase III: heparin lyase III (heparitinase EC 4.2.2.8) purified to homogeneity from Flavobacterium heparinum (protein, UniProt Q59289 25-659, looked up)
Heparin-sulfate lyase: QSSSITRKDFDHINLEYSGLEKVNKAVAAGNYDDAAKALLAYYREKSKAREPDFSNAEKPADIRQPIDKVTREMADKALVHQFQPHKGYGYFDYGKDINWQMWPVKDNEVRWQLHRVKWWQAMALVYHATGDEKYAREWVYQYSDWARKNPLGLSQDNDKFVWRPLEVSDRVQSLPPTFSLFVNSPAFTPAFLMEFLNSYHQQADYLSTHYAEQGNHRLFEAQRNLFAGVSFPEFKDSPRWRQTGISVLNTEIKKQVYADGMQFELSPIYHVAAIDIFLKAYGSAKRVNLEKEFPQSYVQTVENMIMALISISLPDYNTPMFGDSWITDKNFRMAQFASWARVFPANQAIKYFATDGKQGKAPNFLSKALSNAGFYTFRSGWDKNATVMVLKASPPGEFHAQPDNGTFELFIKGRNFTPDAGVFVYSGDEAIMKLRNWYRQTRIHSTLTLDNQNMVITKARQNKWETGNNLDVLTYTNPSYPNLDHQRSVLFINKKYFLVIDRAIGEATGNLGVHWQLKEDSNPVFDKTKNRVYTTYRDGNNLMIQSLNADRTSLNEEEGKVSYVYNKELKRPAFVFEKPKKNAGTQNFVSIVYPYDGQKAPEISIRENKGNDFEKGKLNLTLTINGKQQLVLVP

Experiments:
[1] = Activity remaining after incubation in buffers for 24 h at 37° C.; format: physicochemical
Experimental: The buffer giving optimum activity for each heparin lyase was selected by testing buffers with buffering capacity near the pH optima calculated in the previous experiments. These buffers were: Tris-HCl, sodium phosphate, HEPES, MOPS, TES, and BTP-CHl. Each buffer was prepared at 50 mM, and its pH was adjusted with hydrochloric acid or sodium hydroxide to 6.9 for heparin lyase II acting on heparin, 7.15 for heparin lyase I, 7.3 for heparin lyase II acting on heparan sulfate, and 7.6 for heparin lyase III. The heparin lyase assay solutions were made by diluting enzyme in 50 mM sodium phosphate buffer adjusted to the appropriate pH as previously described. Heparin lyase activity was determined in each buffer. Activity was assayed both immediately after addition to each buffer and following incubation for 24 h at 37° C.

[2] = Isoelectric focusing on agarose gel; format: physicochemical; conditions: agarose IEF
Experimental: IEF gel electrophoresis was run on pre-cast agarose gels (85×100 mm). Two electrode wicks were wetted with 1M phosphoric acid (anolyte) and 1M sodium hydroxide (catholyte). Electrophoresis was at 5 watts for 5 min, then at 10 watts for 1 h until the voltage was constant at 1200 V. The gel was immediately fixed in 15% aqueous trichloroacetic acid, blotted and rinsed with water, dried overnight, stained by using Coomassie G-250, and destained.

[3] = Heparin lyase activity assay (change of absorbance at 232 nm), heparin as substrate; format: biochemical, porcine
Experimental: The spectrophotometer was adjusted to the optimum temperature of the particular lyase being assayed. […] A measured quantity of lyase was added, bringing the final volume to 400 μl and the cuvette was gently mixed. The microcuvette was then immediately returned to the spectrophotometer and the change of absorbance at 232 nm was measured at 10 seconds intervals over 3 min. […] The specific activity was then calculated by dividing the micromoles of product produced per minute by the milligrams of protein in the cuvette. […] G., and Linhardt, R. J. (1989) Carbohydr. Res. 190, 219-233. Protein concentration was measured by the Bradford assay, Bradford, M. M. (1976) Anal. Biochem. 72, 248-254, based on a bovine serum albumin standard curve. […] The activities of each lyase (I acting on heparin, II acting on both heparin and heparan sulfate, and III acting on heparan sulfate) were then determined at different pH values. The buffer giving optimum activity for each heparin lyase was selected by testing buffers with buffering capacity near the pH optima calculated in the previous experiments. These buffers were: Tris-HCl, sodium phosphate, HEPES, MOPS, TES, and BTP-CHl. […] The heparin lyase assay solutions were made by diluting enzyme in 50 mM sodium phosphate buffer adjusted to the appropriate pH as previously described. Heparin lyase activity was determined in each buffer. Activity was assayed both immediately after addition to each buffer and following incubation for 24 h at 37° C. The salt concentration for optimum activity was investigated. Sodium chloride, potassium chloride, and sodium and potassium acetate were used to differentiate between ionic strength and specific ion affects. […] The temperature was adjusted in a temperature-regulated spectrophotometer and equilibrated for 10 min before the assay was started. Michaelis-Menten constants were determined using the optimized conditions. The final absorbance value for total depolymerization was divided by 20 to find a value that represented 5% reaction completion. The purified lyase preparations were diluted so that 5% of total depolymerization would be reached only at the end of a 3-min assay. The reaction velocities at specific molar concentrations for each lyase and their substrates were used for kinetic analysis using EZ-FIT hyperbolic curve-fitting program of […]. (1988) Anal. Biochem. 174, 437-447). Substrate solutions were prepared from 50 mg/ml heparin and 40 mg/ml for heparan sulfate stock solutions. […] The amount of purified lyase used was sufficient for complete depolymerization of heparin or heparan sulfate substrates within 30 min. The initial rate of depolymerization of each polysaccharide was measured, the reaction was then continued for 24 h, and the final level of polysaccharide depolymerization was assessed by measuring the final absorbance at 232 nm and expressed as percent activity.

[4] = Rice and Lindhardt (1989), cited from earlier work

Row | Molecule | retention of activity after incubation ([1]; MOPS, TES, and HEPES, toward both heparin and heparan sulfate) | pI (isoelectric point) [2] | pI (isoelectric point) ([2]; listed as heparin lyase II) | Unit/mg (specific activity) ([3]; final GPC-HPLC purification step, acting on heparin) | average number of sites acted at in the heparin polymer ([3]; final level of depolymerization, 24 h) | initial activity in six buffers (Tris-HCl, sodium phosphate, HEPES, MOPS, TES, BTP-HCl) ([3]; heparin, 50 mM buffer at optimum pH) | temperature for maximum activity ([3]; heparin, 50 mM sodium phosphate at optimum pH, 15-55° C.) | Km ([3]; heparin, I: 30° C., pH 7.15, 100 mM sodium chloride, II: 35° C., pH 7.3, value ± standard error, read-out: Km(app)) | optimum temperature (summary) ([3]; heparin, activity greater at higher temperatures but stability reduced) | Vmax ([3]; heparin, optimized conditions, value ± standard error) | pH optimum for activity ([3]; on heparin) | specific activity ([3]; purified lyase, toward heparin) | Km (Michelis-Menton constant, summary) ([3]; with heparin) | V(max) (summary) ([3]; with heparin) | Km ([3]; with heparin, read-out: Km (Michelis-Menton constant, summary)) | Vmax (reported) [4] | Km ([4]; read-out: apparent Km (reported)) | retention of activity after incubation ([1]; MOPS and HEPES) | pI (isoelectric point) ([2]; listed as heparin lyase III)
1 | B1 | 30-70% | around 8.9 | 8.9-9.1 | 19 Unit/mg | 14 sites | remarkably similar in all six buffers | 40 °C | 57.7 ± 6.56 µM | 35 °C | 16.7 ± 0.555 μmol/min mg protein | 7.3 | 19 units/mg | 0,129 mg/ml | 15.04 | 9.23 µM |  |  |  | 
2 | B2 |  | ~9.2 |  |  |  |  |  |  |  |  |  |  |  |  |  | 0.00357 µmol/min | 5.7 µM | 15-30% | 9.9-10.1
